# Laboratory results reported in patent US20240076396A1 (Regeneron, published 2024).
# B1: mAb1 (antibody, human IgG1, kappa, V domains shown)
# VH: QVQLQESGPGLVKPSETLSLTCIVSGGSISGYFWNWIRQPPGKGLEWIGYIYYSGTTIYNPSLKSRFTISLDTSKNQFSLKLTSVTAADTAVYYCARESYDPSPRYFDHWGQGTLVTVSS
# VL: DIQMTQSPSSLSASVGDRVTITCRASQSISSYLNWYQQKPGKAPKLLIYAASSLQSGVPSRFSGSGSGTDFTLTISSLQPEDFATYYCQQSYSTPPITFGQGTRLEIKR
# notes: Human IgG1; N101D variant of CompAb1; also called N101D Variant; N101D
# Assays:
# [1] = target: T1, Jurkat/hCD20 cells (human CD20, no GITR; negative control cell line) (human, UniProt P11836 1-297); experiment: flow cytometry on Jurkat/hCD20 control cells; max MFI over secondary antibody alone
# T1 construct: whole, on cells; Control cell line without engineered GITR; the only named engineered protein on it is hCD20
# T1 sequence (looked up): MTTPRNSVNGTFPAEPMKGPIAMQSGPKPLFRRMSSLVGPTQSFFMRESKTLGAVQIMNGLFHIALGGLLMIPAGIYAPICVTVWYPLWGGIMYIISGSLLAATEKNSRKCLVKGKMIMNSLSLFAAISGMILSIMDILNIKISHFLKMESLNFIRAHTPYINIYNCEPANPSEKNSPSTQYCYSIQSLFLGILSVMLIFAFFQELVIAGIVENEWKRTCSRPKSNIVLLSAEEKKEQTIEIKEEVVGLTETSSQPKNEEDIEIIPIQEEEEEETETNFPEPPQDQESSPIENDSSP
# Method: Flow cytometry was used to evaluate mAb1 binding to Jurkat/hCD20/hGITR cells and Jurkat/hCD20/MfGITR cells. Jurkat/hCD20 cells were used as a negative control cell line for GITR binding. Cells were added to a 96-well V-bottom plate (2×10⁵ to 4×10⁵ cells/well) and incubated in Fc block solution, followed by successive incubation on ice with primary antibody (mAb1 or IgG1 isotype control) at final concentrations ranging from 18 pM to 300 nM and a secondary antibody (AF647-conjugated anti-human IgG) at 5 μg/mL. Cells were then stained with LIVE/DEAD Fixable Green Dead Cell Stain according to the manufacturer's instructions. […] Data were analyzed with Flow.lo software. For EC₅₀ (effective concentration at 50% activity) determinations, measured geometric MFI values were analyzed using a 4-parameter logistic equation over a 9-point response curve with GraphPad Prism. The fold binding was determined by taking the ratio of the highest MFI on the curve to the MFI of the wells containing secondary antibody only.
# ^a The maximum MFI was the highest mean MFI value within the concentration range tested (18 pM to 300 nM). ^b Fold binding was calculated as the maximum MFI above background (secondary antibody alone). h, Human; Mf, Macaca fascicularis (cynomolgus monkey); ND, Not determined because concentration-dependent binding was not observed
# [2] = target: T2, hGITR.mFc (dimeric recombinant human GITR ectodomain protein, mouse Fc fusion) (human); experiment: SPR Biacore 2000 25C; CHOt supernatant antibody captured on anti-human Fc; 50 nM hGITR.mFc
# T2 construct: also called dimeric human GITR; dimeric GITR
# T2 chain: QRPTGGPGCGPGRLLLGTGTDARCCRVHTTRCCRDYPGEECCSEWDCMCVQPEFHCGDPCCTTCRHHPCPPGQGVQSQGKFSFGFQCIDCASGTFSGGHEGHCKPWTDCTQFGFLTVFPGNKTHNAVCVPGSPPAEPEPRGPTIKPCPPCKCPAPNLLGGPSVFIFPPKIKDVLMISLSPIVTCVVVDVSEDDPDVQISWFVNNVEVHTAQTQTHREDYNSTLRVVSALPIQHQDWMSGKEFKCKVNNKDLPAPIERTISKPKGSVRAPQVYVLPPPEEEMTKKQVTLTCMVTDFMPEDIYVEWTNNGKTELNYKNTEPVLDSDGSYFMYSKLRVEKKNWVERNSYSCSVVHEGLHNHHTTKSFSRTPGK
# Method: Biacore experiments for antibodies secreted in conditioned culture medium were performed as follows. Using a Biacore 2000 instrument at 25° C., antibodies were captured for 80 seconds at a flow rate of 8 uL/min on a CM5 anti-humanFc-coupled surface. Approximately 1000-2000 RU of each antibody were captured. 100 nM hGITR.mmH (soluble monomeric hGITR, SEQ ID NO: 45) or 50 nM hGITR.mFc (dimeric Macaca fasicularis GITR, SEQ ID NO: 46) were injected over this surface for 2 minutes at a flow rate of 50 uL/min. Dissociation was measured for 2 minutes. The KD and t_{1/2} were calculated by fitting the double-referenced sensorgrams to a 1:1 binding model.
binder,measurement,setting,value
B1,Fold Binding,[1],1.06 fold
same,Kd,[2],0.0813 nM
same,t1/2,[2],5.75 h
